# Reference: the supplement of paper PMC9233669
# Variants at the floor of the assay were thinned out.
# System: biotinyl-Phe-oxazolone
# Assay: self-aminoacylation, catalytic enhancement (BFO) (fold over background); higher = more active; k-Seq, kA / k0A0; sequences stand for … in GGGAAUGGAUCCACAUCUACGAAUUC…UUCACUGCAGACUUGACGAAGCUG
# Summary of the method: (§1)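 Mutagenized RNA pools with a 21-nt variable region (0.43 μM) reacted with each biotinyl-aminoacyl-oxazolone at 2–1250 μM. Reactions ran in 50 μL HEPES/NaCl/KCl/MgCl2/CaCl2 buffer with 5% acetonitrile, pH 6.9–7.0, for 90 minutes at room temperature. Streptavidin-captured RNA was quantified by triplicate qPCR and Illumina sequencing, and per-sequence fraction reacted was fit to a pseudo-first-order model with 1000 bootstraps. Catalytic enhancement is median kA divided by the uncatalyzed rate, the low-activity peak of a bimodal Gaussian fit.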
row,Sequence,self-aminoacylation
1,AAGAUGGCUAAUAGUCGCAAG [Fam3.1 aminoacylation ribozyme variant],2.14
2,AAGCUUACUAAUAGUCGCAAG [Fam3.1 aminoacylation ribozyme variant],3.02
3,AAGCUUGCUAAUAAUCGCAAG [Fam3.1 aminoacylation ribozyme variant],2.2
4,AAGCUUGCUAAUAGUCCCAAG [Fam3.1 aminoacylation ribozyme variant],3.57
5,AAGGUUGCUAAUAGUCCCAAG [Fam3.1 aminoacylation ribozyme variant],2.86
6,AAGGUUGCUACUAGUCGCAAG [Fam3.1 aminoacylation ribozyme variant],4
7,AAGUAUGCUAAGAGUCGCAAG [Fam3.1 aminoacylation ribozyme variant],4.08
8,AAGUAUGCUAAUAGUCGCUAG [Fam3.1 aminoacylation ribozyme variant],2.24
9,AAGUCUCCUAAUAGUCGCAAG [Fam3.1 aminoacylation ribozyme variant],3.11
10,AAGUCUGCUGAUAGUCGCAAG [Fam3.1 aminoacylation ribozyme variant],3.91
11,AAGUUAGCGAAUAGUCGCAAG [Fam3.1 aminoacylation ribozyme variant],2.1
12,AAGUUAGCUAAUUGUCGCAAG [Fam3.1 aminoacylation ribozyme variant],2.54
13,AAGUUCGCUAGUAGUCGCAAG [Fam3.1 aminoacylation ribozyme variant],4.51
14,AAGUUUAAUAAUAGUCGCAAG [Fam3.1 aminoacylation ribozyme variant],2.22
15,AAGUUUACUAAUAGUCGCACG [Fam3.1 aminoacylation ribozyme variant],2.22
16,AAGUUUACUAAUAGUCGUAAG [Fam3.1 aminoacylation ribozyme variant],2.3
17,AAGUUUCCAAAUAGUCGCAAG [Fam3.1 aminoacylation ribozyme variant],2.83
18,AAGUUUCCUAAUAGUCUCAAG [Fam3.1 aminoacylation ribozyme variant],2.15
19,AAGUUUGCGCAUAGUCGCAAG [Fam3.1 aminoacylation ribozyme variant],2.97
20,AAGUUUGCUAAAAGUCGCAUG [Fam3.1 aminoacylation ribozyme variant],2.71
21,AAGUUUGCUAACAGUCGCAGG [Fam3.1 aminoacylation ribozyme variant],3.44
22,AAGUUUGCUAAUACUCGCGAG [Fam3.1 aminoacylation ribozyme variant],5.73
23,AAGUUUGCUAAUGGCCGCAAG [Fam3.1 aminoacylation ribozyme variant],4.21
24,AAGUUUGCUCACAGUCGCAAG [Fam3.1 aminoacylation ribozyme variant],2.76

row,Sequence,self-aminoacylation
1,AAGUUUGCUCAUAGUCGCAGG [Fam3.1 aminoacylation ribozyme variant],2.92
2,AAGUUUGGUAAAAGUCGCAAG [Fam3.1 aminoacylation ribozyme variant],2.32
3,AAGUUUUCUAAUAGCCGCAAG [Fam3.1 aminoacylation ribozyme variant],2.19
4,AAUUUUGCUAAUGGUCGCAAG [Fam3.1 aminoacylation ribozyme variant],3.61
5,ACACACUUCAAGCAAUCGAUC [Fam1B.1 aminoacylation ribozyme variant],2.02
6,ACGUUAGCUAAUAGUCGCAAG [Fam3.1 aminoacylation ribozyme variant],3.08
7,ACUCACCUAGGUCAUCGUGUG [Fam2.2 aminoacylation ribozyme variant],4.06
8,AGGUUUGUUAAUAGUCGCAAG [Fam3.1 aminoacylation ribozyme variant],3.87
9,AGUCACCUAGGUCAUCGUGUG [Fam2.2 aminoacylation ribozyme variant],7.83
10,AUGUUUGCUAAUAGUCGGAAG [Fam3.1 aminoacylation ribozyme variant],5.76
11,AUUACCCUGGCCAUCGUGUGA [Fam2.1 aminoacylation ribozyme variant],6.7
12,AUUACCCUGGUCAUCGAGAGG [Fam2.1 aminoacylation ribozyme variant],2.47
13,AUUACCCUGGUCAUCGUGUGU [Fam2.1 aminoacylation ribozyme variant],2.45
14,AUUACCCUGGUCGUCGUGUGA [Fam2.1 aminoacylation ribozyme variant],9.58
15,AUUACCCUGGUGAUCGUGUGA [Fam2.1 aminoacylation ribozyme variant],5.71
16,AUUCACCUAGGUCAUCCGGUC [Fam2.2 aminoacylation ribozyme variant],4.67
17,AUUCACCUAGGUCAUCCGGUU [Fam2.2 aminoacylation ribozyme variant],9.74
18,AUUCACCUAGGUCGUCGUGUG [Fam2.2 aminoacylation ribozyme variant],3.62
19,AUUCACCUAGGUCGUCUGGUG [Fam2.2 aminoacylation ribozyme variant],5.84
20,AUUCACCUAGGUGAGCGGGUG [Fam2.2 aminoacylation ribozyme variant],7.25
21,AUUCACUUAGGUCGUCGGGUG [Fam2.2 aminoacylation ribozyme variant],4.92
22,AUUCUCCUAGGUCAUCGGGUC [Fam2.2 aminoacylation ribozyme variant],4.09
23,AUUUCCCUGGUCAUCGAGUUA [Fam2.1 aminoacylation ribozyme variant],2.12
24,CAACACUUCAAGCAAUCGGAC [Fam1B.1 aminoacylation ribozyme variant],2.37

row,Sequence,self-aminoacylation
1,CAACUUCAAACAAUCGAUCUG [Fam1A.1 aminoacylation ribozyme variant],3.33
2,CAACUUUAAACAAUCGGUCUG [Fam1A.1 aminoacylation ribozyme variant],2.09
3,CAGUUUGCUAAUAGUCGCUAG [Fam3.1 aminoacylation ribozyme variant],2.2
4,CAGUUUGCUCAUAGUCGCAAG [Fam3.1 aminoacylation ribozyme variant],2.06
5,CCACACUUCAAACAAUCGAUC [Fam1B.1 aminoacylation ribozyme variant],2.59
6,CCACACUUCAGGCAAUCCGUC [Fam1B.1 aminoacylation ribozyme variant],2.08
7,CCACAUUUCAAGAAAUCGGUC [Fam1B.1 aminoacylation ribozyme variant],2.09
8,CCACAUUUCAAGCAAUCGGUC [Fam1B.1 aminoacylation ribozyme variant],3.26
9,CCACGCAUCAAGCAAUCGGUC [Fam1B.1 aminoacylation ribozyme variant],3.83
10,CGACACUUCAGGCAAUCGGUC [Fam1B.1 aminoacylation ribozyme variant],2.04
11,CUACAUCAAACAAUGGGUCUG [Fam1A.1 aminoacylation ribozyme variant],2.95
12,CUACUGCAAACAGUCGGUCUG [Fam1A.1 aminoacylation ribozyme variant],2.04
13,CUACUGCAAUCAAUCGGUCUG [Fam1A.1 aminoacylation ribozyme variant],2.9
14,CUACUUCAAAAACUCGGUCUG [Fam1A.1 aminoacylation ribozyme variant],2.19
15,CUACUUCAAACACUCGGUCGG [Fam1A.1 aminoacylation ribozyme variant],5.02
16,CUACUUCAGACAAUCGGGCUG [Fam1A.1 aminoacylation ribozyme variant],3.52
17,CUACUUCCAACGAUCGGUCUG [Fam1A.1 aminoacylation ribozyme variant],3.05
18,CUAGUUCAAACAAUCGGUAUG [Fam1A.1 aminoacylation ribozyme variant],3.27
19,CUCCUUCAAACAGUCGGUCUG [Fam1A.1 aminoacylation ribozyme variant],3.98
20,CUGCUUCAAACAAUCCGUCUG [Fam1A.1 aminoacylation ribozyme variant],2.71
21,GAGUUUGCUAAUAGUAGCAAG [Fam3.1 aminoacylation ribozyme variant],3.32
22,GCACACUUCAAGCAAACGGUC [Fam1B.1 aminoacylation ribozyme variant],2.05
23,GUACUGCAAACAAUCGGUCUG [Fam1A.1 aminoacylation ribozyme variant],3.7
24,GUACUUCGAACAAUCGGUCUG [Fam1A.1 aminoacylation ribozyme variant],5.74

# System: biotinyl-Trp-oxazolone
# Assay: self-aminoacylation, catalytic enhancement (BWO) (fold over background); higher = more active; k-Seq, kA / k0A0; sequences stand for … in GGGAAUGGAUCCACAUCUACGAAUUC…UUCACUGCAGACUUGACGAAGCUG
# Summary of the method: as §1
row,Sequence,self-aminoacylation
1,AAGUAUGCUAAUAGUCGCCAG [Fam3.1 aminoacylation ribozyme variant],3.29
2,AAGUUGGCUAAUAGUCGCGAG [Fam3.1 aminoacylation ribozyme variant],3.96
3,AAGUUUGCUAAAAGUCGCCAG [Fam3.1 aminoacylation ribozyme variant],2.25
4,AAGUUUGCUAAUAUUCCCAAG [Fam3.1 aminoacylation ribozyme variant],2.1
5,AAUUUUGCGAAUAGUCGCAAG [Fam3.1 aminoacylation ribozyme variant],2
